From publication PMC5150220, “Multivalent contacts of the Hsp70 Ssb contribute to its architecture on ribosomes and nascent chain interaction” (Nature Communications, 2016)
Each block holds one binder with its values, some of them ahead of it. Ends that are not written are not given here.

B2: APPY peptide (biotinylated) (peptide)
peptide: SALLQSRLLLSAPRRAAATARYC
modifications: also: biotinylated, position not given here
notes: canonic Hsp70 substrate peptide APPY
B3: Ssb1 (wild type, recombinant) (natural protein)
chain: not shown
notes: Hsp70 Ssb1 of Saccharomyces cerevisiae, wild type, expressed as His6-Smt3-Ssb1 and cleaved with Ulp1; The nucleotide state was set by pre-treatment with ATP (SsbATP) or apyrase (SsbADP) in one experiment; also called wt Ssb1; full length Ssb1; source: E. coli BL21(DE3)*/pRARE, purified (Ni-IDA, Ulp1 cleavage, Resource Q anion exchange); not shown: His6, N-terminal, cleaved; Smt3, N-terminal, …

What was measured:
Conditions in all cases: both partners purified
[1] = target: B3; test: fluorescence polarisation; fluorescence anisotropy; Ssb1 wt or mutant (10 uM in the methods; titrated up to 100 uM in the text) with 1 uM IAANS-labelled peptide in HKM buffer (25 mM HEPES, 150 mM KCl, 5 mM MgCl2, 1 mM DTT, 10% glycerol), 1.5 h at 30 °C
[2] = target: T1, Ssb1Δ601–13 (recombinant) (S. cerevisiae, UniProt P11484 1-600); test: as above
T1 construct: Purified as the wild type ('His6-Smt3-Ssb1 construct (or mutations thereof)'); also called mutant Ssb1; source: E. coli BL21(DE3)*/pRARE, purified (Ni-IDA, Ulp1 cleavage, Resource Q anion exchange); not shown: His6, N-terminal, cleaved; Smt3, N-terminal, cleaved
T1 sequence (P11484 1-600, stated change not applied): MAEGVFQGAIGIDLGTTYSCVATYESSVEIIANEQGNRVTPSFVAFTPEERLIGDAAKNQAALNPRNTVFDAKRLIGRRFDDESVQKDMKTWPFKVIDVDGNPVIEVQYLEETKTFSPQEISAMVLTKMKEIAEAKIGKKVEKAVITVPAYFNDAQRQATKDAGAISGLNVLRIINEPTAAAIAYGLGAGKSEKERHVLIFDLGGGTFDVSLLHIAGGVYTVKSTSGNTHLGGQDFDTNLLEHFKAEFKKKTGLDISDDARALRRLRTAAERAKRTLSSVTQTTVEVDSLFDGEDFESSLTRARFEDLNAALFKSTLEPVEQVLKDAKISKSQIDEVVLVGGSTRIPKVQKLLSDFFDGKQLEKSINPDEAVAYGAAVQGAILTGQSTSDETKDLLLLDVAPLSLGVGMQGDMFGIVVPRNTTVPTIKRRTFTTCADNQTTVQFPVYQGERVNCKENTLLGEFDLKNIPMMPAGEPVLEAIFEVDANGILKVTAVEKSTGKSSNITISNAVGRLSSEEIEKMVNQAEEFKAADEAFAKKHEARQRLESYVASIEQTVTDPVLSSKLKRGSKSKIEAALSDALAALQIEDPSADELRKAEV

[3] = target: B3; test: SEC; 2 uM biotinylated peptide incubated 30 min at RT with 4 uM purified Ssb1 in Ssb buffer (30 mM HEPES KOH pH 7.4, 50 mM KAc, 5 mM MgCl2, 1 mM beta-mercaptoethanol), then apyrase for 1 h; Superose 12; fractions dot-blotted, peptide detected with StrepTactin-HRP and Ssb with antibody
[4] = target: T1, Ssb1Δ601–13 (recombinant); test: as above
[5] = target: B2; test: SEC; as a1, but Ssb pre-incubated with apyrase (SsbADP) before the peptide was added, compared with Ssb pre-incubated with ATP (SsbATP) and treated with apyrase after the peptide; shifted APPY signals quantified

- binding result [1]: binds
- binding result [2]: binds
B1: IAANS-labelled peptide σ32-Q132-Q144-C (peptide)
peptide: QRKLFFNLRKTKQC
modifications: also: IAANS label, position not given here
notes: sigma-32 (heat shock sigma factor RpoH), residues Q132-Q144; The unlabelled peptide was used in 100-fold excess as the chase in the release assay; also called model peptide

Binder: B2
- binding result [3]: binds
- binding result [4]: binds

Binder: B3
- shifted APPY signal of SsbADP relative to SsbATP [5]: 71%
